Experimental data published in paper PMC9888389.

Target: T1, Atg7, endogenous in mouse heart, Q9D906
T1 chain: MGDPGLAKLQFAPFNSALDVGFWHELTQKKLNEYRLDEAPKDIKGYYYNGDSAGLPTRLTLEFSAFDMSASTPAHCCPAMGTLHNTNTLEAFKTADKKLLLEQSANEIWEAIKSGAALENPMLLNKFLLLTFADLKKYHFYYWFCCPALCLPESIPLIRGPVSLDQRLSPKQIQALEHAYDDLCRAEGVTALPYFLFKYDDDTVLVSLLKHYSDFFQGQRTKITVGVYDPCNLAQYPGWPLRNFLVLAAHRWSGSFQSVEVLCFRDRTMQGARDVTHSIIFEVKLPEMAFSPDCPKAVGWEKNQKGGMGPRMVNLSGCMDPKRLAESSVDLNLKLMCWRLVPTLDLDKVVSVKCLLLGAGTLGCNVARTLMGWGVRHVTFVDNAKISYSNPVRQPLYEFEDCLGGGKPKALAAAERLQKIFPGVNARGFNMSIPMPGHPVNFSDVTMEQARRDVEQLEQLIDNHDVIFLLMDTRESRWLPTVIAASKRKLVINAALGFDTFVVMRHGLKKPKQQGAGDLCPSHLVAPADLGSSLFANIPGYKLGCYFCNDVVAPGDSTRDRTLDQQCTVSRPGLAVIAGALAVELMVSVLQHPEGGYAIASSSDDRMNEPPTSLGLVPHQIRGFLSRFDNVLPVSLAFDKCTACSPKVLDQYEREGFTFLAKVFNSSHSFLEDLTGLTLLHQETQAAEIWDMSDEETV
Experiment: coimmunoprecipitation with anti-FLAG-agarose beads, immunoblot for Atg7, quantified
Conditions: chain shown with the change, Tg-Flag-Trx1 C35S mouse heart, n = 4, read off a plot

B1: Trx1 (wild type) C35S (protein)
chain: MVKQIESKTAFQEALDAAGDKLVVVDFSATWCGPSKMIKPFFHSLSEKYSNVIFLEVDVDDCQDVASECEVKCMPTFQFFKKGQKVGEFSGANKEKLEATINELV
In the case of B1, the response (Arbitrary unit) (ischemia for 20 minutes) is reported as 0.8 and the response (Arbitrary unit) (sham operation) is reported as 0.55.
